Values joined by “and” are separate entries in the source; they are usually repeats but may differ in a detail not shown here. Identical values can stand only once. Like-named read-outs stand apart in the source and are kept apart here.
What was measured:
[1] = biological target: soluble recombinant CD80 (sCD80), sCD80his after removal of the carboxy-terminal oligo-histidine tag (human); assay: SPR
[2] = biological target: CD28 Ig (UniProt P10747); assay: SPR
[3] = biological target: CTLA-4 Ig (human) (UniProt P16410); assay: SPR
[4] = biological target: CD28 Ig (UniProt P10747); assay: SPR; remark: listed apart in the source
[5] = biological target: CTLA-4 Ig (human) (UniProt P16410); assay: SPR; remark: listed apart in the source
[6] = biological target: CD28 Ig (UniProt P10747); assay: SPR; remark: listed apart in the source
[7] = biological target: CTLA-4 Ig (human) (UniProt P16410); assay: SPR; remark: listed apart in the source
[8] = biological target: CD28 Ig (UniProt P10747); assay: SPR; remark: listed apart in the source
[9] = biological target: CTLA-4 Ig (human) (UniProt P16410); assay: SPR; remark: listed apart in the source
[10] = biological target: CTLA-4 Ig (human) (UniProt P16410); assay: pull-down

Chain of CTLA-4 Ig (P16410 37-161): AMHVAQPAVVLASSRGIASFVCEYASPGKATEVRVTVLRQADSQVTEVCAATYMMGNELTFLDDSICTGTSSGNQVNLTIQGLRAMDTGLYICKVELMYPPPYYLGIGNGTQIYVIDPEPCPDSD

CTLA-4 Ig (from UniProt P16410 37-161) (Fc fusion)
fold higher avidity than CD28 Ig [1]: > 100 fold

soluble recombinant CD80 (sCD80), sCD80his after removal of the carboxy-terminal oligo-histidine tag (domain or fragment)
Kd [2]: 2500 nM | Kd [3]: 260 nM | Kd [4]: 4000 nM | Kd [5]: 420 nM | Kd [6]: 4200 nM | Kd [7]: 380 nM | Kd [8]: 4100 nM and 4300 nM | response at 0.82 μM sCD80 (CD28 Ig 7800 RUs), beginning of the experiment [8]: 160 RU | t1/2 of dissociation (high CD28 Ig level, 40 μl/min) [8]: 0.93 s | t1/2 of dissociation (high CD28 Ig level, 80 μl/min) [8]: 0.84 s | t1/2 of dissociation (low CD28 Ig level, 40 μl/min) [8]: 0.69 s | t1/2 of dissociation (low CD28 Ig level, 80 μl/min) [8]: 0.64 s | Kd [9]: 400 nM | response at 0.26 μM sCD80 (CTLA-4 Ig 1,500 RUs), beginning of the experiment [9]: 255 RU | response at 0.26 μM sCD80 (CTLA-4 Ig 1,500 RUs), end of the experiment [9]: 250 RU | t1/2 of dissociation (high CTLA-4 Ig level, 20 μl/min) [9]: 4.8 s | t1/2 of dissociation (high CTLA-4 Ig level, 40 μl/min) [9]: 4.4 s | t1/2 of dissociation (low CTLA-4 Ig level, 20 μl/min) [9]: 2.2 s | t1/2 of dissociation (low CTLA-4 Ig level, 40 μl/min) [9]: 2.35 s | proportion of sCD80 with CTLA-4-binding activity [10]: 100%

From paper PMC2196039
